# B1: P2RY14 (parent)
# chain: KLLSVIVWMLMLLLAVPNIILTNQ
# Variants of: B1
# Assay: protein stability index of a GFP-peptide fusion (GPS, HEK-293T) (PSI 1-6); higher = more stable
# Settings: c terminus: a fixed tail appended
# 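Also: lentivirally expressed fusions sorted by FACS into six bins by GFP to DsRed ratio, PSI derived from sequencing read proportions per bin multiplied by bin number.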
row,Variant,protein stability index
1,KLLSVIQWMLMLLLAVPNIILTNQ,2.74
2,KLLSVIAWMLMLLLAVPNIILTNQ,2.07
3,KLLSVIKWMLMLLLAVPNIILTNQ,4.05
4,KLLSVIYWMLMLLLAVPNIILTNQ,3.99
5,KLLSVISWMLMLLLAVPNIILTNQ,2.28
6,KLLSVIEWMLMLLLAVPNIILTNQ,2.65
7,KLLSVIWWMLMLLLAVPNIILTNQ,4.44
8,KLLSVITWMLMLLLAVPNIILTNQ,3.76
9,KLLSVIVWMLMLLLAVLNIILTNQ,2.97
10,KLLSVIVWMLMLLLAVHNIILTNQ,2.96
11,KLLSVIVWMLMLLLAVWNIILTNQ,1.98
12,KLLSVIVWMLMLLLAVCNIILTNQ,2.41
13,KLLSVIVWMLMLLLAVQNIILTNQ,2.82
14,KLLSVIVWMLMLLLAVDNIILTNQ,2.68
15,KLLSVIVWMLMLLLAVANIILTNQ,2.56
16,KLLSVIVWMLMLLLAVKNIILTNQ,3.35
17,KLLSVIVWMLMLLLAVYNIILTNQ,1.54
18,KLLSVIVWMLMLLLAVFNIILTNQ,2.69
19,KLLSVIVWMLMLLLAVMNIILTNQ,1.52
20,KLLSVIVWMLMLLLAVPNIILLNQ,2.2
21,KLLSVIVWMLMLLLAVPNIILKNQ,3.2
22,KLLSVIVWMLMLLLAVPNIILNNQ,2.75
23,KLLSVIVWMLMLLLAVPNIILINQ,2.32
24,KLLSVIVWMLMLLLAVPNIILMNQ,2.38

row,Variant,protein stability index
1,KLLSVIVWMLMLLLAVPNIILSNQ,3.96
2,KLLSVIVWMLMLLLAVPNIILWNQ,2.92
3,KLLSVIVWMLMLLLAVPNIILFNQ,2.97
4,KLLSVIVWMLMLLLAVPNIILYNQ,3.3
5,KLLSVIVWMLMLLLAVPNIILDNQ,4.01
6,KLLSVIVWMLMLLLAVPNAILTNQ,3.24
7,KLLSVIVWMLMLLLAVPNFILTNQ,2.98
8,KLLSVIVWMLMLLLAVPNQILTNQ,1.89
9,KLLSVIVWMLMLLLAVPNNILTNQ,3.66
10,KLLSVIVWMLMLLLAVPNYILTNQ,3.02
11,KLLSVIVWMLMLLLAVPNSILTNQ,2.07
12,KLLSVIVWMLMLLLAVPNTILTNQ,3.06
13,KLLSIIVWMLMLLLAVPNIILTNQ,3.93
14,KLLSHIVWMLMLLLAVPNIILTNQ,3.85
15,KLLSNIVWMLMLLLAVPNIILTNQ,2.29
16,KLLSAIVWMLMLLLAVPNIILTNQ,3.26
17,KLLSEIVWMLMLLLAVPNIILTNQ,2.42
18,KLLSGIVWMLMLLLAVPNIILTNQ,4.02
19,KLLSQIVWMLMLLLAVPNIILTNQ,2.35
20,KLLSKIVWMLMLLLAVPNIILTNQ,2.52
21,KLLSVIVWMLMLLLAVPNIILTNH,2.8
22,KLLSVIVWMLMLLLAVPNIILTNG,2.91
23,KLLSVIVWMLMLLLAVPNIILTND,4.62
24,KLLSVIVWMLMLLLAVPNIILTNT,2.81

row,Variant,protein stability index
1,KLLSVIVWMLMLLLAVPNIILTNF,2.69
2,KLLSVIVWMLMLLLAVPNIILTNK,2.6
3,KLLSVIVWMLMLLLAVPNIILTNL,3.08
4,KLLSVIVWMLMLLLAVPNIILTNV,1.96
5,KLLSVIVWMLMLLLAVPNIILTNI,2.79
6,KLLSVIVWMLMLLLAVPNIILTNC,2.79
7,KLLSVIVWMLMLLLAEPNIILTNQ,2.6
8,KLLSVIVWMLMLLLASPNIILTNQ,2.89
9,KLLSVIVWMLMLLLAQPNIILTNQ,3.43
10,KLLSVIVWMLMLLLAPPNIILTNQ,2.75
11,KLLSVIVWMLMLLLAGPNIILTNQ,2.36
12,KLLSVIVWMLMLLLAHPNIILTNQ,2.06
13,KLLSVIVWMLMLLLANPNIILTNQ,3.98
14,KLLSVIVWMLMLLLADPNIILTNQ,2.52
15,KLLSVIVWMLMLLLAVPRIILTNQ,1.49
16,KLLSVIVWMLMLLLAVPIIILTNQ,2.63
17,KLLSVIVWMLMLLLAVPFIILTNQ,2.16
18,KLLSVIVWMLMLLLAVPVIILTNQ,1.58
19,KLLSVIVWMLMLLLAVPHIILTNQ,3.81
20,KLLSVIVWMLMLLLAVPYIILTNQ,2.09
21,KLLSVIVWMLMLLLAVPKIILTNQ,2.59
22,KLLSVIVWMLMLLLAVPPIILTNQ,2.78
23,KLLSVIVWMLMLLLAVPWIILTNQ,1.92
24,KLLSVIVWMLMLLLAVPCIILTNQ,2.1

row,Variant,protein stability index
1,KLLSVIVWMGMLLLAVPNIILTNQ,2.08
2,KLLSVIVWMIMLLLAVPNIILTNQ,3.19
3,KLLSVIVWMNMLLLAVPNIILTNQ,1.95
4,KLLSVIVWMHMLLLAVPNIILTNQ,3.63
5,KLLSVIVWMSMLLLAVPNIILTNQ,4.89
6,KLLSVIVWMVMLLLAVPNIILTNQ,2.99
7,KLLSVIVWMWMLLLAVPNIILTNQ,2.31
8,KLLSVIVNMLMLLLAVPNIILTNQ,2.41
9,KLLSVIVVMLMLLLAVPNIILTNQ,2.86
10,KLLSVIVLMLMLLLAVPNIILTNQ,1.76
11,KLLSVIVGMLMLLLAVPNIILTNQ,2.81
12,KLLSVIVHMLMLLLAVPNIILTNQ,2.85
13,KLLSVIVFMLMLLLAVPNIILTNQ,2.3
14,KLLSVIVKMLMLLLAVPNIILTNQ,3.73
15,KLLSVIVYMLMLLLAVPNIILTNQ,2.21
16,KLLSVIVRMLMLLLAVPNIILTNQ,2.67
17,KLLSVIVMMLMLLLAVPNIILTNQ,3.83
18,KLFSVIVWMLMLLLAVPNIILTNQ,3.42
19,KLTSVIVWMLMLLLAVPNIILTNQ,2.93
20,KLMSVIVWMLMLLLAVPNIILTNQ,1.64
21,KLWSVIVWMLMLLLAVPNIILTNQ,3.69
22,KLYSVIVWMLMLLLAVPNIILTNQ,2.55
